B1: Hairpin Ribozyme (parent)
chain: GUCCUCUUUCACGUGCGCGUGAAAGAGAGAAGUGAACCAGAGAAACACACGUUGUGGUAUAUUACCUGGUA

Variants of: B1
Assay: self-cleavage, relative activity (ratio to wild type); higher = more cleavage; co-transcriptional

Variant | self-cleavage
U2A A23U | 0.167
G1U U63G | 0.0703
U2C U20G | 0.0615
U2C U20A | 0.25
U2C G42C | 0.108
U2A A39U | 0.127
U2A G25C | 0.171
U2A A41U | 0.54
U2C G17U | 0.1
U2A C3G | 0.127
U2A C37U | 0.23
U2C C46G | 0.0408
G1U G69U | 0.101
G1U G69C | 0.0943
U2C A45G | 0.0514
U2C A45C | 0.0982
U2A U55A | 0.103
U2G A35G | 0.213
U2G A35C | 0.477
G1U U58C | 0.0791
U2A G15A | 0.216
U2A C50A | 0.219
U2A G29C | 0.105
U2A G29A | 0.0918

Variant | self-cleavage
U2C C37U | 0.113
G1U U62G | 0.163
G1U U62C | 0.172
G1U U55C | 0.217
U2C G15A | 0.126
U2C G15U | 0.117
U2A A45U | 0.0686
G1U G56C | 0.229
U2A A64G | 0.0976
U2A A59U | 0.141
U2A A59C | 0.0974
U2A A59G | 0.156
U2C U52G | 0.0756
U2C U52A | 0.287
U2C U52C | 0.0386
U2A U52G | 0.203
U2C G54A | 0.134
U2A A30G | 0.442
G1U G32C | 0.0843
G1U G32A | 0.146
U2C A26C | 0.0664
U2C A26G | 0.121
U2A A31G | 0.334
U2A A31U | 0.163

Variant | self-cleavage
G1U U2A | 0.11
G1U G29U | 0.154
G1U G29C | 0.109
U2A A47U | 0.0626
G1U G68C | 0.0827
G1U G68U | 0.051
G1U G68A | 0.124
G1U U5C | 0
U2C U8C | 0.236
G1U U53G | 0.227
U2C G57A | 0.175
U2G | 0.348
U2C | 0.171
U2A | 0.259
U2A G69U | 0.151
U2A A43G | 0.138
U2A A49U | 0.0799
U2C C48U | 0.0586
U2C C48G | 0.108
U2A G54U | 0.119
U2C U55A | 0.0763
U2C G21A | 0.0868
U2C U7A | 0.119
G1U U14G | 0.184

Variant | self-cleavage
U2A A11C | 0.288
U2C C3A | 0.114
U2C G29A | 0.0747
U2A G21U | 0.271
U2C A28U | 0.0802
U2G A28U | 0.32
U2G A28G | 0.138
G1U U7C | 0.0995
U2A C38U | 0.14
U2A U63G | 0.0633
U2G A11C | 0.267
U2G A11G | 0.306
U2G A11U | 0.295
G1U U8C | 0.118
G1U U67C | 0.0702
G1U U67G | 0.097
U2A C46A | 0.143
U2C U14G | 0.075
U2C G56C | 0.166
U2A U60A | 0.175
U2C A36G | 0.212
U2A C65A | 0.222
U2A U9G | 0.179
U2A U9C | 0.233

Variant | self-cleavage
U2A A22C | 0.341
U2A A22G | 0.175
U2C U62G | 0.0944
U2C A61G | 0.0293
U2A U33A | 0.077
G1U G34C | 0.143
U2A G27U | 0.124
U2C A47C | 0.0817
U2A A26U | 0.253
U2C A41U | 0.283
G1U G40U | 0.111
G1U G40A | 0.123
U2A U70A | 0.331
U2A U70G | 0.224
U2C A11U | 0.197
U2A U53C | 0.292
U2A U53A | 0.303
U2C U63A | 0.115
U2G A36U | 0.318
U2C U67A | 0.0712
U2C G13A | 0.217
U2A A36C | 0.143
U2A G19A | 0.216
U2A G19C | 0.106

Variant | self-cleavage
U2C A31U | 0.25
U2C A31G | 0
U2G A23G | 0.318
U2G A23C | 0.289
U2G A39U | 0.162
U2G A39G | 0.179
U2A G17A | 0.274
U2A G51U | 0.228
U2G A41G | 0.38
U2A G32A | 0.0985
U2C C4G | 0.0947
U2C C4A | 0.1
U2C C4U | 0.0249
U2A C18G | 0.212
U2A C4G | 0.0724
U2G A43C | 0.115
U2C U53A | 0.322
U2C G69U | 0.114
U2A C66U | 0.127
U2A C66G | 0.161
U2C U58A | 0.235
U2C A71G | 0.125
U2C A71U | 0.2
U2C A22U | 0.296

Variant | self-cleavage
U2C A43G | 0.167
G1U U52A | 0.0595
U2C C16A | 0.0439
U2A U62C | 0.0796
U2A U62A | 0.194
U2C U5A | 0.118
U2G A44U | 0.0754
U2A C16A | 0.221
U2A C16U | 0.259
U2G A26U | 0.238
U2G A26C | 0.153
U2A G57A | 0.136
U2A U67C | 0.0778
U2A U67G | 0.158
G1U U60A | 0.195
G1U U60C | 0
U2C A23G | 0.116
U2C A23U | 0.185
U2C G32U | 0.183
U2C A24C | 0.227
U2C A24U | 0.107
U2A G68A | 0.0992
U2A G68U | 0.133

— the RNAGym collection of RNA variant scans (doi:10.7554/elife.80360)
